In patent US20080038256A1 (SEOUL NATIONAL UNIVERSITY INDUSTRY FOUNDATION, published 2008):
Residue numbers refer to the chain shown, from its start. Each block holds one binder with its values, some of them ahead of it.

Tests used:
[1] = target: T1, HGF/SF (hepatocyte growth factor/scatter factor) (UniProt P14210 32-728, limits assumed); assay: competition ELISA: HGF/SF coated on the plate, cMET/Fc chimera as the blocked ligand mixed with the varied Fab, bound cMET/Fc detected with HRP anti-human Fc, Abs. at 450 nm, triplicates
T1 sequence (P14210 32-728 limits assumed): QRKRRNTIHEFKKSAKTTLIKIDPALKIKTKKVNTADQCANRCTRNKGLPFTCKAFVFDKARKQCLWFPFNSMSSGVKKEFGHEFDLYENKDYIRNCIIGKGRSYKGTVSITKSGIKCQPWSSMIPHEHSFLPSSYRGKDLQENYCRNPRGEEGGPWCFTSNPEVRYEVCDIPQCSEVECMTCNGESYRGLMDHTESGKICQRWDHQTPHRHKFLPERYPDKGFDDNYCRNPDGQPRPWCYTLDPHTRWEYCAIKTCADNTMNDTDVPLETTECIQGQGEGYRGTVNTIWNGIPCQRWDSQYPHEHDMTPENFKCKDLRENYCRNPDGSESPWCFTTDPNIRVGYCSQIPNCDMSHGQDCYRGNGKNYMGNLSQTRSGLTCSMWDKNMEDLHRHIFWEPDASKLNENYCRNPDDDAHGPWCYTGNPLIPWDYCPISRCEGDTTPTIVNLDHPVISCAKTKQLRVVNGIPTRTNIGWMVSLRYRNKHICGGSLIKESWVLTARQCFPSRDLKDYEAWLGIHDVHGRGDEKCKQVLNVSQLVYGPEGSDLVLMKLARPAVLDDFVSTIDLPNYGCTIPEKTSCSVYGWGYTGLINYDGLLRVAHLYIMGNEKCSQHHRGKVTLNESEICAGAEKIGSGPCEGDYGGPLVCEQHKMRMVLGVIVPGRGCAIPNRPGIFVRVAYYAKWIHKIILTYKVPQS
Description: A 96-well microplate was coated with 1 μg/ml of HGF/SF and blocked by repeating the procedure of (2-2) of Example 2. Then 25 μl of 2 nM cMET/Fc chimera (R&D systems, USA) mixed with 25 μl of 0 to 200 nM HSFN 68-13 or SFN 68 dissolved in TBSB was added to the HGF/SF coated wells. The plate was incubated for at 37° C. 1 hour and washed with TBS-T. The amount of bound cMET/Fc chimera was assessed with HRP-conjugated rabbit anti-human Fc specific IgG (Pierce) using ultra-TMB substrate solution (Pierce) as a substrate. After 30 min incubation, optical density was measured at 450 nm. All experiments were performed in triplicates, and the average and standard deviation of the optical densities are listed in FIG. 5.

[2] = target: T1, HGF/SF (hepatocyte growth …); assay: affinity examination of the HSFN 68 clones on HGF/SF, reference SFN68; method not named in this paragraph
[3] = target: T1, HGF/SF (hepatocyte growth …); assay: SPR (BIAcore), HGF/SF immobilized
Description: (§1) The binding affinity of the anti-HGF/SF Fab humanized antibody to HGF/SF was determined by SPR (Surface plasmon Resonance) on a BIAcore device (BIAcore, Sweden).
(§2) Specifically, HGF/SF was immobilized on a carboxymethyldextran-modified (CM5) sensor chip (Biacore AB) using 10 mM sodium acetate buffer (pH 4.0) at a flow rate of 5 μl/min with an amine coupling kit (Biacore AB) in accordance with the instruction of the kit. Then 4 anti-HGF/SF Fabs and SFN 68 as a control dissolved in phosphate buffered saline (PBS, pH 7.4) containing 0.005% Tween 20 (Sigma) was injected on the chip at 25° C. for 2 min at a flow rate of 30 μl/min, respectively. The anti-HGF/SF Fab humanized antibody was diluted to a varying concentration in the range of 1.25 to 200 nM. The surface was regenerated with 1 M NaCl/50 mM NaOH. The kinetic rate constants (kₒₙ and koff) as well as the equilibrium dissociation constant (KD) were determined by using BIA evaluation software.

[4] = target: T1, HGF/SF (hepatocyte growth …); assay: SPR (BIAcore), HGF/SF immobilized on CM5 chip, Fab injected
Description: as §1, §2

- IC50 (read off the curve) [1]: ~2 nM
- fold higher affinity than SFN68 [2]: ~6 fold
- fold tighter affinity than SFN68 control [3]: ~6 fold
- Kd [4]: 2.09 nM
- kon [4]: 647000 M⁻¹ s⁻¹
B1: HSFN 68-13 Fab (Fab, V domains shown)
VH: QQQLVESGGGVVRPGGSLRLSCAASGFTFSTYYMSWVRQAPGKGLEWIGYIGTSSGTTYYANSVKGRFTISSDNAKNSVYLQMNSLRPEDTAVYYCARGLGRINLWGPGTLVTVSS
VL: ELQMTQSPSSLSASVGDRVTITCRASQSISTWLAWYQQKPGKAPKLLIYKASTLESGVPLRFSGGGSGTDFTLTISSLQSEDFATYFCQQSYSLPPTFGQGTKVEVKR
notes: also called anti-HGF/SF Fab humanized antibody

- Kd [4]: 43.1 nM
- kon [4]: 32400 M⁻¹ s⁻¹
B2: HSFN 68-16 Fab (Fab, V domains shown)
VH: B1 VH with V11L, R13Q, V37I, K76Q, P108Q
VL: ELVMTQSPSTLSASVGDRVTITCRASQSISSWLAWYQQKPGKAPKLLIYKASTLESGVSSRFSGGGSGTEFTLTISSLQPDDFATYYCQQYSRYSGGTFGQGTKVEIRR
notes: Fab with human Ckappa and human CH1, expressed from pComb3X in E. coli HB2151

- Kd [4]: 10.6 nM
- kon [4]: 106000 M⁻¹ s⁻¹
B3: HSFN 68-41 Fab (Fab, V domains shown)
VH: B1 VH with V11L, R13Q, I48V, P108Q
VL: B2 VL with V3Q, T10S, L11V, T22S, S28D, S30R, W32L, S59P, G65S, S77N
notes: as for B2

- Kd [4]: 5.27 nM
- kon [4]: 392000 M⁻¹ s⁻¹
B4: HSFN 68-27 Fab (Fab, V domains shown)
VH: B1 VH with Q2V, V11L, R13K, L18R, K76Q, P108Q
VL: ELQMTQSPSTLSASVGDRVTITCRASQSISSRLAWYQQKPGKAPKLLIYRASTLEGGVPSRFSGSGSGTEFTLTISGLQPDDFATYYCQQYSTFSPTFGQGTQVDIKR
notes: as for B2
